# According to patent publication US20020123091A1:
# Columns and labels:
# [1] = target: human kallikrein (Haematologic Technologies) (human) (UniProt P03952); assay: cell-based or functional assay
# [2] = target: human kallikrein (Haematologic Technologies) (human) (UniProt P03952); assay: apparent Ki (K1*) calculated from the IC50 as K1*=IC50/(1+(S/KM)), assuming competitive inhibition; chromogenic substrate S2305 1.8 mM, kallikrein 1.25 nM
# Chain of human kallikrein (Haematologic Technologies) (human) (P03952 20-638 limits assumed): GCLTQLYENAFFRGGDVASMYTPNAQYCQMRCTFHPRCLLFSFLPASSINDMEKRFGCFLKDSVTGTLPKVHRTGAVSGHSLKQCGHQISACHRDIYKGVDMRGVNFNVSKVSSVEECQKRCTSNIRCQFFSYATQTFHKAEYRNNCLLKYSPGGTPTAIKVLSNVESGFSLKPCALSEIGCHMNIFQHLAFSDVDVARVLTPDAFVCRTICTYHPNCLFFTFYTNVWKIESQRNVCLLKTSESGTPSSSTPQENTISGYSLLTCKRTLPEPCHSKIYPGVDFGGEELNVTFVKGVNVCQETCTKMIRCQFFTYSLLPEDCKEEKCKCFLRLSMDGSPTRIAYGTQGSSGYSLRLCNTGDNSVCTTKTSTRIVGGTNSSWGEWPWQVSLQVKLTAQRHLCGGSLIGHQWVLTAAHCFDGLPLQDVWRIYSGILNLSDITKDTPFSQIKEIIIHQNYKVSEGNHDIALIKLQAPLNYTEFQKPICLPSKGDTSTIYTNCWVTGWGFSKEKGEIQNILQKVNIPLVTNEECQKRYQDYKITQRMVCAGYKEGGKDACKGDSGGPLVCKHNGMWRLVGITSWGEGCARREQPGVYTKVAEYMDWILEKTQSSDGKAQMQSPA
substance,measurement,setting,value
PRO256 polypeptide (from UniProt O43278 36-465),inhibition of kallikrein enzymatic activity toward chromogenic substrate S2305 (IC50),[1],104 nM
same,Ki,[2],37 nM
